Measurements published in patent US9540428B2, “Extracellular matrix heparin-binding domains” (EPFL-TTO, priority 2012, dated 2017).

Columns and labels:
Details in all cases: 50 nM cytokine coated
FGF-2 = FGF-2 (Homo sapiens, UniProt P09038); test: ELISA binding to coated FGF-2
Procedure: (§1) ELISA plates were coated with cytokines or BSA and further incubated with TNC III1-5 to analyze binding of TNC III1-5 to a wide variety of cytokines. […] Results are depicted in FIG. 3. Method: 50 nM of cytokine was coated for (1 hr, 37° C.). After blocking with 2% BSA (1 hr, RT). 100 nM TNC III1-5 was applied in PBST (0.05% tween, 0.1% bovine serum albumin (BSA)) (1 hr, RT). TNC III1-5 was detected with horseradish peroxidase (HRP)-anti-HIS in PBST (1 hr, RT) and developed with 3,3′,5,5′-tetramethylbenzidine (TMB), a soluble colorimetric HRP […]. Addition of sulfuric acid stop solution changes the color to yellow, enabling accurate measurement of the intensity at 450 nm using a spectrophotometer or plate reader. […] Heparin (4 μM) was added to TNC III1-5 to test the effect of blocking the heparin binding site of TNC III1-5, which has been defined as domain TNC III5 (Weber, Zimmermann, et al., 1995).
(§2) ELISA plates were coated with cytokines or BSA and further incubated with Fg β15-66 to analyze binding of […] to a wide variety of cytokines. […] Results are depicted in FIG. 4. Method: The methods were analogous to those used in Example 3.

TGF-β2 = biological target: T1, TGF-β2 (Homo sapiens, UniProt P61812); test: ELISA binding to coated TGF-β2
T1 sequence (P61812 303-414 limits assumed): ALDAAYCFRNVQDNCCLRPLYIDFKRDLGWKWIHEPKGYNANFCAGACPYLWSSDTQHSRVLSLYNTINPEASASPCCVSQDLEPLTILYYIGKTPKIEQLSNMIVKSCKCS
Procedure: as §1, §2

BMP-2 = biological target: T2, BMP-2 (Homo sapiens, UniProt P12643); test: ELISA binding to coated BMP-2
T2 sequence (P12643 283-396): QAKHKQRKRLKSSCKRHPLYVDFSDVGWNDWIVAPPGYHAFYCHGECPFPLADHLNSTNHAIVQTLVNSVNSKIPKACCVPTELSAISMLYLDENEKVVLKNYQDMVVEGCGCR
Procedure: as §1, §2

PLGF-2 = biological target: T3, PLGF-2 (Homo sapiens, UniProt P49763); test: ELISA binding to coated PLGF-2
T3 sequence (P49763 19-170 isoform P49763-3 limits assumed): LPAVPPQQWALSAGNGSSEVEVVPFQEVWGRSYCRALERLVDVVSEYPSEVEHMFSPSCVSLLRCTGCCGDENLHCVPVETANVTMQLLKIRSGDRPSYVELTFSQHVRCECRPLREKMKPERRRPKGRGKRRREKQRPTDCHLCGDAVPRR
Procedure: as §1, §2

FGF-10 = biological target: T4, FGF-10 (Homo sapiens, UniProt O15520); test: ELISA binding to coated FGF-10
T4 sequence (O15520 38-208): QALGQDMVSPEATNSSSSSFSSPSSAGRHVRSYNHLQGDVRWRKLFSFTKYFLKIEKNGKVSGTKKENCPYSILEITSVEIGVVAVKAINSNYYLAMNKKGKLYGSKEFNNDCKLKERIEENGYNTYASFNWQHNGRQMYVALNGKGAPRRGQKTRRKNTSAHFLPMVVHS
Procedure: as §1, §2

PDGF-AB = PDGF-AB (Homo sapiens, UniProt P01127+P04085); test: ELISA binding to coated PDGF-AB
Procedure: as §1, §2

VEGF-B = biological target: T5, VEGF-B (Homo sapiens, UniProt P49765); test: ELISA binding to coated VEGF-B
T5 sequence (P49765 22-207): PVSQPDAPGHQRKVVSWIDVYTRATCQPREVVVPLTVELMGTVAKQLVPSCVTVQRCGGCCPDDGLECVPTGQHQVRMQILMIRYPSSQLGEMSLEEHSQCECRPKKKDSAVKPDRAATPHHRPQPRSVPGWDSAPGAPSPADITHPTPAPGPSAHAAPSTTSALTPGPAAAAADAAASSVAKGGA
Procedure: as §1, §2

PDGF-AA = PDGF-AA (Homo sapiens, UniProt P04085); test: ELISA binding to coated PDGF-AA
Procedure: as §1

IGF-BP5 = IGF-BP5 (Homo sapiens, UniProt P24593); test: ELISA binding to coated IGF-BP5
Procedure: as §1, §2

NT-3 = biological target: T6, NT-3 (Homo sapiens, UniProt P20783); test: ELISA binding to coated NT-3
T6 sequence (P20783 139-257): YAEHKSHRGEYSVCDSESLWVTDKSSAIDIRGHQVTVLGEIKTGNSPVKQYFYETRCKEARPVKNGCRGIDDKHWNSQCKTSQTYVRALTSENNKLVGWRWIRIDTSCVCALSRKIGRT
Procedure: as §1, §2

PDGF-BB = PDGF-BB (Homo sapiens, UniProt P01127); test: ELISA binding to coated PDGF-BB
Procedure: as §1, §2

FGF-7 = biological target: T7, FGF-7 (Homo sapiens, UniProt P21781); test: ELISA binding to coated FGF-7
T7 sequence (P21781 32-194): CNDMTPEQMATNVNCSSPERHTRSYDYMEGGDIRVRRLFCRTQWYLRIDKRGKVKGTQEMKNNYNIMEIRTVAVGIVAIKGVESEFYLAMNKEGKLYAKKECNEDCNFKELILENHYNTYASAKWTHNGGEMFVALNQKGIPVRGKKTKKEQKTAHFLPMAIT
Procedure: as §1, §2

IGF-BP3 = IGF-BP3 (Homo sapiens, UniProt P17936); test: ELISA binding to coated IGF-BP3
Procedure: as §1, §2

VEGF-A165 = biological target: T8, VEGF-A165 (Homo sapiens, UniProt P15692); test: ELISA binding to coated VEGF-A165
T8 sequence (P15692 1-191 isoform P15692-4): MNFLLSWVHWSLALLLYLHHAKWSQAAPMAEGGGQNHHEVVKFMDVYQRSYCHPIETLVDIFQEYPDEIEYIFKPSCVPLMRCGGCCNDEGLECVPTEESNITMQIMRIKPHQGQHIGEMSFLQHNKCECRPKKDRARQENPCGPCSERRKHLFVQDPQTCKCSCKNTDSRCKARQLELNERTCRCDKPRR
Procedure: as §1, §2

TGF-β1 = TGF-β1 (Homo sapiens, UniProt P01137); test: ELISA binding to coated TGF-β1
Procedure: as §1, §2

BDNF = biological target: T9, BDNF (Homo sapiens, UniProt P23560); test: ELISA binding to coated BDNF
T9 sequence (P23560 129-247): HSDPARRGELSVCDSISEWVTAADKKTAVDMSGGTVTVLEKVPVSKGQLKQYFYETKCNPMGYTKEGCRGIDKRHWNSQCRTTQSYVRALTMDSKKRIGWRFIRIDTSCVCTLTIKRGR
Procedure: as §1, §2

PLGF-1 = biological target: T10, PLGF-1 (Homo sapiens, UniProt P49763); test: ELISA binding to coated PLGF-1
T10 sequence (P49763 19-149 isoform P49763-2): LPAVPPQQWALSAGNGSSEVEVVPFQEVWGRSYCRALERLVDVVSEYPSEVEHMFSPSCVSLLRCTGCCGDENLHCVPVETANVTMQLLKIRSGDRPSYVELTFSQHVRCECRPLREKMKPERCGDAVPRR
Procedure: as §1, §2

FGF-2, sequence (P09038 143-288, species assumed): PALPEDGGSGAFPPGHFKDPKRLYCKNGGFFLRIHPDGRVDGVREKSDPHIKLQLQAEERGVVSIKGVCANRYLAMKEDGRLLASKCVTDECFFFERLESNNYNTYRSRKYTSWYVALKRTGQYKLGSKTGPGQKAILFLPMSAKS
IGF-BP3, sequence (P17936 28-291, species assumed): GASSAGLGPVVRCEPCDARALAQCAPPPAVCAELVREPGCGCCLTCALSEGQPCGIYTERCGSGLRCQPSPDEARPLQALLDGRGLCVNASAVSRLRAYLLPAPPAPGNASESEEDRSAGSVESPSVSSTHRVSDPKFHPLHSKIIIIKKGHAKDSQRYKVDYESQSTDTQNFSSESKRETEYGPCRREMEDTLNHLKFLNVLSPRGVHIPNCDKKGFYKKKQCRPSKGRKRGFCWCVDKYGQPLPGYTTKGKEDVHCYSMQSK
TGF-β1, sequence (P01137 279-390 limits assumed, species assumed): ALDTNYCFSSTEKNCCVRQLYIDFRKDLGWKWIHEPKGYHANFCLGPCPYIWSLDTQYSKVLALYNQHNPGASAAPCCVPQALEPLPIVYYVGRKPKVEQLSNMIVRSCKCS
IGF-BP5, sequence (P24593 21-272, species assumed): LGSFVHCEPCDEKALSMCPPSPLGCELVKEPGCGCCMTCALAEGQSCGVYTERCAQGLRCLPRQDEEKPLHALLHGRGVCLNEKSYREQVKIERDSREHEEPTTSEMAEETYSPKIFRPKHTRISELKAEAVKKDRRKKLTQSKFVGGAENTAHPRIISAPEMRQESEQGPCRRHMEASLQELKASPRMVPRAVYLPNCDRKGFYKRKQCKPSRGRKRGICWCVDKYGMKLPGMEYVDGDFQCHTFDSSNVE
PDGF-AB, sequence (P01127 82-190 limits assumed, other chains not shown): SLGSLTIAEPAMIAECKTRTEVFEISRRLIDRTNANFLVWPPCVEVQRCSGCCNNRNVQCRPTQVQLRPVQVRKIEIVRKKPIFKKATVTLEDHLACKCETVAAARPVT
PDGF-BB, sequence (P01127 82-190 limits assumed): as the sequence (P01127 82-190 limits assumed, other chains not shown) above

B1: TNC III1-5: recombinant tenascin C fibronectin type III repeats 1-5 (E622 to A1074) with transglutaminase substrate NQEQVSPL and 6×His tag, SEQ ID NO:1 (protein)
chain: METDTLLLWVLLLWVPGSTGDAAQPAIEGRNQEQVSPLGGSEVSPPKDLVVTEVTEETVNLAWDNEMRVTEYLVVYTPTHEGGLEMQFRVPGDQTSTIIQELEPGVEYFIRVFAILENKKSIPVSARVATYLPAPEGLKFKSIKETSVEVEWDPLDIAFETWEIIFRNMNKEDEGEITKSLRRPETSYRQTGLAPGQEYEISLHIVKNNTRGPGLKRVTTTRLDAPSQIEVKDVTDTTALITWFKPLAEIDGIELTYGIKDVPGDRTTIDLTEDENQYSIGNLKPDTEYEVSLISRRGDMSSNPAKETFTTGLDAPRNLRRVSQTDNSITLEWRNGKAAIDSYRIKYAPISGGDHAEVDVPKSQQATTKTTLTGLRPGTEYGIGVSAVKEDKESNPATINAATELDTPKDLQVSETAETSLTLLWKTPLAKFDRYRLNYSLPTGQWVGVQLPRNTTSYVLRGLEPGQEYNVLLTAEKGRHKSKPARVKASTEQAGGGSHHHHHH
modifications: Tenascin III signal sequence with polyhistidine tag
FGF-2
  binding to FGF-2 (ELISA, signal above BSA background): positive binding
TGF-β2
  binding to TGF-β2 (ELISA, signal above BSA background): positive binding
BMP-2
  binding to BMP-2 (ELISA, signal above BSA background): positive binding
PLGF-2
  binding to PLGF-2 (ELISA, signal above BSA background): positive binding
FGF-10
  binding to FGF-10 (ELISA, signal above BSA background): positive binding
PDGF-AB
  binding to PDGF-AB (ELISA, signal above BSA background): positive binding
VEGF-B
  binding to VEGF-B (ELISA, signal above BSA background): positive binding
PDGF-AA
  binding to PDGF-AA (ELISA, signal above BSA background): positive binding
IGF-BP5
  binding to IGF-BP5 (ELISA, signal above BSA background): positive binding
NT-3
  binding to NT-3 (ELISA, signal above BSA background): positive binding
PDGF-BB
  binding to PDGF-BB (ELISA, signal above BSA background): positive binding
FGF-7
  binding to FGF-7 (ELISA, signal above BSA background): positive binding
IGF-BP3
  binding to IGF-BP3 (ELISA, signal above BSA background): positive binding
VEGF-A165
  binding to VEGF-A165 (ELISA, signal above BSA background): positive binding
TGF-β1
  binding to TGF-β1 (ELISA, signal above BSA background): positive binding
BDNF
  binding to BDNF (ELISA, signal above BSA background): positive binding
PLGF-1
  binding to PLGF-1 (ELISA, signal above BSA background): positive binding

B2: Fg β15-66: heparin-binding domain of human fibrinogen β chain aa15-66 (SEQ ID NO:8); construct with TG substrate and His tag, SEQ ID NO:2 (protein)
chain: GSNQEQVSPLGHRPLDKKREEAPSLRPAPPPISGGGYRARPAKAAATQKKVERKAPDAGGCGHHHHHH
modifications: GS linker, transglutaminase substrate, the Fg beta15-66, with a Histidine tag
FGF-2
  binding to FGF-2 (ELISA, signal above BSA background): positive binding
TGF-β2
  binding to TGF-β2 (ELISA, signal above BSA background): positive binding
BMP-2
  binding to BMP-2 (ELISA, signal above BSA background): positive binding
PLGF-2
  binding to PLGF-2 (ELISA, signal above BSA background): positive binding
FGF-10
  binding to FGF-10 (ELISA, signal above BSA background): positive binding
PDGF-AB
  binding to PDGF-AB (ELISA, signal above BSA background): positive binding
VEGF-B
  binding to VEGF-B (ELISA, signal above BSA background): positive binding
IGF-BP5
  binding to IGF-BP5 (ELISA, signal above BSA background): positive binding
NT-3
  binding to NT-3 (ELISA, signal above BSA background): positive binding
PDGF-BB
  binding to PDGF-BB (ELISA, signal above BSA background): positive binding
FGF-7
  binding to FGF-7 (ELISA, signal above BSA background): positive binding
IGF-BP3
  binding to IGF-BP3 (ELISA, signal above BSA background): positive binding
VEGF-A165
  binding to VEGF-A165 (ELISA, signal above BSA background): positive binding
TGF-β1
  binding to TGF-β1 (ELISA, signal above BSA background): positive binding
BDNF
  binding to BDNF (ELISA, signal above BSA background): positive binding
PLGF-1
  binding to PLGF-1 (ELISA, signal above BSA background): did not bind
